B1: UGT76E1: UDP-glycosyltransferase, Arabidopsis thaliana, SEQ ID NO: 11, SEQ ID NO: 12 (protein, listed as Arabidopsis thaliana)
chain: MEELGVKRRIVLVPVPAQGHVTPIMQLGKALYSKGFSITVVLTQYNRVSSSKDFSDFHFLTIPGSLTESDLKNLGPFKFLFKLNQICEASFKQCIGQLLQEQGNDIACVVYDEYMYFSQAAVKEFQLPSVLFSTTSATAFVCRSVLSRVNAESFLLDMKDPKVSDKEFPGLHPLRYKDLPTSAFGPLESILKVYSETVNIRTASAVIINSTSCLESSSLAWLQKQLQVPVYPIGPLHIAASAPSSLLEEDRSCLEWLNKQKIGSVIYISLGSLALMETKDMLEMAWGLRNSNQPFLWVIRPGSIPGSEWTESLPEEFSRLVSERGYIVKWAPQIEVLRHPAVGGFWSHCGWNSTLESIGEGVPMICRPFTGDQKVNARYLERVWRIGVQLEGELDKGTVERAVERLIMDEEGAEMRKRVINLKEKLQASVKSRGSSFSSLDNFVNSLKMMNFM
B2: UGT73E1: UDP-glycosyltransferase, Stevia rebaudiana, SEQ ID NO: 13, SEQ ID NO: 14 (protein, listed as Stevia rebaudiana)
chain: MSPKMVAPPTNLHFVLFPLMAQGHLVPMVDIARILAQRGATVTIITTPYHANRVRPVISRAIATNLKIQLLELQLRSTEAGLPEGCESFDQLPSFEYWKNISTAIDLLQQPAEDLLRELSPPPDCIISDFLFPWTTDVARRLNIPRLVFNGPGCFYLLCIHVAITSNILGENEPVSSNTERVVLPGLPDRIEVTKLQIVGSSRPANVDEMGSWLRAVEAEKASFGIVVNTFEELEPEYVEEYKTVKDKKMWCIGPVSLCNKTGPDLAERGNKAAITEHNCLKWLDERKLGSVLYVCLGSLARISAAQAIELGLGLESINRPFIWCVRNETDELKTWFLDGFEERVRDRGLIVHGWAPQVLILSHPTIGGFLTHCGWNSTIESITAGVPMITWPFFADQFLNEAFIVEVLKIGVRIGVERACLFGEEDKVGVLVKKEDVKKAVECLMDEDEDGDQRRKRVIELAKMAKIAMAEGGSSYENVSSLIRDVTETVRAPH
B3: UGT73C3: UDP-glycosyltransferase, Arabidopsis thaliana, SEQ ID NO: 15, SEQ ID NO: 16 (protein, listed as Arabidopsis thaliana)
chain: MATEKTHQFHPSLHFVLFPFMAQGHMIPMIDIARLLAQRGVTITIVTTPHNAARFKNVLNRAIESGLAINILHVKFPYQEFGLPEGKENIDSLDSTELMVPFFKAVNLLEDPVMKLMEEMKPRPSCLISDWCLPYTSIIAKNFNIPKIVFHGMGCFNLLCMHVLRRNLEILENVKSDEEYFLVPSFPDRVEFTKLQLPVKANASGDWKEIMDEMVKAEYTSYGVIVNTFQELEPPYVKDYKEAMDGKVWSIGPVSLCNKAGADKAERGSKAAIDQDECLQWLDSKEEGSVLYVCLGSICNLPLSQLKELGLGLEESRRSFIWVIRGSEKYKELFEWMLESGFEERIKERGLLIKGWAPQVLILSHPSVGGFLTHCGWNSTLEGITSGIPLITWPLFGDQFCNQKLVVQVLKAGVSAGVEEVMKWGEEDKIGVLVDKEGVKKAVEELMGDSDDAKERRRRVKELGELAHKAVEKGGSSHSNITLLLQDIMQLAQFKN
B4: UGT76E12: UDP-glycosyltransferase, Arabidopsis thaliana, SEQ ID NO: 17, SEQ ID NO: 18 (protein, listed as Arabidopsis thaliana)
chain: MQVLGMEEKPARRSVVLVPFPAQGHISPMMQLAKTLHLKGFSITVVQTKFNYFSPSDDFTHDFQFVTIPESLPESDFKNLGPIQFLFKLNKECKVSFKDCLGQLVLQQSNEISCVIYDEFMYFAEAAAKECKLPNIIFSTTSATAFACRSVFDKLYANNVQAPLKETKGQQEELVPEFYPLRYKDFPVSRFASLESIMEVYRNTVDKRTASSVIINTASCLESSSLSFLQQQQLQIPVYPIGPLHMVASAPTSLLEENKSCIEWLNKQKVNSVIYISMGSIALMEINEIMEVASGLAASNQHFLWVIRPGSIPGSEWIESMPEEFSKMVLDRGYIVKWAPQKEVLSHPAVGGFWSHCGWNSTLESIGQGVPMICRPFSGDQKVNARYLECVWKIGIQVEGELDRGVVERAVKRLMVDEEGEEMRKRAFSLKEQLRASVKSGGSSHNSLEEFVHFIRTL
B5: UGT85A1: UDP-glycosyltransferase, Arabidopsis thaliana, SEQ ID NO: 9, SEQ ID NO: 10 (protein, listed as Arabidopsis thaliana)
chain: MGSQIIHNSQKPHVVCVPYPAQGHINPMMRVAKLLHARGFYVTFVNTVYNHNRFLRSRGSNALDGLPSFRFESIADGLPETDMDATQDITALCESTMKNCLAPFRELLQRINAGDNVPPVSCIVSDGCMSFTLDVAEELGVPEVLFWTTSGCAFLAYLHFYLFIEKGLCPLKDESYLTKEYLEDTVIDFIPTMKNVKLKDIPSFIRTTNPDDVMISFALRETERAKRASAIILNTFDDLEHDVVHAMQSILPPVYSVGPLHLLANREIEEGSEIGMMSSNLWKEEMECLDWLDTKTQNSVIYINFGSITVLSVKQLVEFAWGLAGSGKEFLWVIRPDLVAGEEAMVPPDFLMETKDRSMLASWCPQEKVLSHPAIGGFLTHCGWNSILESLSCGVPMVCWPFFADQQMNCKFCCDEWDVGIEIGGDVKREEVEAVVRELMDGEKGKKMREKAVEWQRLAEKATEHKLGSSVMNFETVVSKFLLGQKSQD

Key:
[1] = system: wild-type MATa strain ATCC 28383; assay: Growth-inhibitory effect on yeast, cell viability by plating (CFU); type: cell-based, S. cerevisiae; conditions: 0.125 g/L, 5 h of exposure, plated on YPD
Description: A 20 mL seed culture of wild-type MATa strain ATCC 28383 was grown in SD-THUL medium (0.67 Bacto yeast nitrogen base without amino acids, 2% glucose, 0.14% yeast synthetic drop-out medium without uracil, tryptophan, histidine and leucine). The culture was grown for 24 h, and 2.5 mL of the culture was used to inoculate 7 equal batches of 50 mL fermentation medium (2% (NH4)2SO4, 2% KH2PO4, 0.1% NaCl, 0.6% MgSO4.7H2O, 0.4% yeast extract, 1 mL mineral solution [FeSO4.7H2O 0.028%, ZnSO4.7H2O 0.029%, CuSO4.5H2O 0.008%, Na2MoO4.2H2O 0.024%, CoCl2.6H2O 0.024%, MnSO4.H2O 0.017%, HCl 1 mL], 0.5 mL 50% glucose, 1.5 mL vitamin solution [biotin 0.001%, Ca-pantothenate 0.012%, inositol 0.06%, pyridoxine-HCl 0.012%, thiamine-HCl 0.012%], and 0.5 mL 10% CaCl2) in 250 mL baffled Ehrlenmeyer flasks.
In 6 flasks, nootkatol or glycosylated nootkatol (nootkatol+1 glucose) were added in final concentrations of 0.06, 0.125, and 0.5 g/L. The 7th flask was used as a control and was not treated with nootkatol or glycosylated nootkatol. The cultures were grown at 28° C. and 170 rpm, and the cell viability was measured after 5 h of exposure by plating 100 μL of 1/1000 dilution of cell culture on yeast extract peptone dextrose (YPD) plates.

yeast = conditions: Gavira et al., 2013, Metab Eng. 18:25-35; cited from earlier work
[2] = In vitro glycosylation of nootkatol by purified UGTs with UDP-glucose, LC-MS; type: biochemical; conditions: 5 mM nootkatol, 15 mM UDP-glucose, 5 μL purified enzyme, overnight at 30° C.
From the text: UGT85A1 (SEQ ID NO:9, SEQ ID NO:10), UGT76E1 (SEQ ID NO:11, SEQ ID NO:12), UGT73E1 (SEQ ID NO:13, SEQ ID NO:14), UGT73C3 (SEQ ID NO:15, SEQ ID NO:16), and UGT76E12 (SEQ ID NO:17, SEQ ID NO:18) were each cloned into a T7 promoter-based vector comprising a sequence coding for an N-terminal 6×His-tag. The vector backbone was linearized with restriction endonucleases, the UGT genes were amplified by PCR, and the constructs were verified by DNA sequencing.
Competent E. coli expression cells were transformed individually with a UGT-comprising plasmid. A colony from each transformation was inoculated individually in 6 mL NZCYM broth comprising an antibiotic. The pre-culture was incubated overnight at 37° C. and 220 rpm and used to inoculate 100 mL NZYCM broth with an antibiotic at an initial OD600 of 0.2. After growth at 37° C. until an OD600 of 0.6-0.8, the cells were induced for protein expression using 0.2 mM IPTG, followed by incubation at 20° C. and 120 rpm for 18-20 h.
Cells were harvested by centrifugation at approximately 4° C. and approximately 4000 g for 20 min and resuspended in 3 mL 10 mM Tris-HCl, pH 8.0 plus protease inhibitor. After cell disruption, 6 mL 1×HIS binding buffer (20 mM Tris-HCl, pH 7.5, 500 mM NaCl, and 10 mM imidazole) were added to the suspension. Cell crude extracts were centrifuged at 4° C. and approximately 4000 g for 30 min. The supernatant was collected, and 300 μL of nickel beads were added; the mixture was incubated with gentle mixing at 4° C. for 2 h. The mixture was centrifuged at 4° C. and approximately 1000 g for 3 min, the supernatant was removed, and the beads were resuspended with 3 mL 1×HIS binding buffer. This step was performed twice. The beads were then resuspended and mixed gently in 500 μL 1×HIS Binding Buffer. The mixture was then transferred into a cold Eppendorf tube, centrifuged at 4° C. and approximately 1000 g, and the supernatant was removed. The beads were resuspended in 400 μL elution buffer (20 mM Tris-HCl, pH 7.5, 500 mM NaCl, 250 mM imidazole), mixed gently, centrifuged at 4° C. and approximately 1000 g for 3 min, and the supernatant was collected. This step was performed three times to collect three elution fractions. Glycerol was added in a 1:1 ratio to each elution tube and protein solutions were stored at −80° C. The fractions were analyzed by SDS-PAGE and Western Blot. The fraction comprising the UGT with the highest purity was used for the subsequent in vitro assay.
UGT85A1 (SEQ ID NO:9, SEQ ID NO:10), UGT76E1 (SEQ ID NO:11, SEQ ID NO:12), UGT73E1 (SEQ ID NO:13, SEQ ID NO:14), UGT73C3 (SEQ ID NO:15, SEQ ID NO:16), and UGT76E12 (SEQ ID NO:17, SEQ ID NO:18) were employed for in vitro glycosylation of nootkatol in the presence of the sugar donor, UDP-glucose. The reaction was carried out in a final volume of 50 μL buffer (100 mM Tris, pH 8.0, 5 mM MgCl2, 1 mM KCl), 5 mM nootkatol in DMSO, 15 mM UDP-glucose, and 5 μL purified enzyme solution. The reaction was incubated overnight at 30° C. The sample was analyzed by LC-MS on a BEH C18-column (100 mm×2.1 mm, 5 μm). Mobile phase A was 0.1% formic acid in water; mobile phase B was 0.1% formic acid in acetonitrile. B concentration gradient was 0-1 min, 1%; 1-5 min, 100%; 5-7 min, 100%; 7-7.1 min, 1%; 7.1-9 min, 1%. The injection volume was 5 μL. […]

Molecule | cell death [1] | cellular toxicity in yeast (yeast) | Area-under-curve of the peak of glycosylated nootkatol (nootkatol+1 glucose) produced in vitro [2]
C=C(C)C1CCC2=CC(O)CC(C)C2(C)C1 (centres unmarked) [nootkatol, 2,3,4,4a,5,6,7,8-octahydro-6-isopropenyl-4,4a-dimethyl-2-naphtalenol] | ~99% | cellular toxicity | 
C=C(C)[C@@H]1CCC2=CC(=O)C[C@@H](C)[C@]2(C)C1 [nootkatone, 4,4a,5,6,7,8-hexahydro-6-isopropenyl-4,4a-dimethyl-2(3H)-napthalenone] |  | cellular toxicity | 
B1 |  |  | 1566336
B2 |  |  | 1288384
B3 |  |  | 1211635
B4 |  |  | 820053
B5 |  |  | 1632282

Reference: patent US20180327723A1, “Production of Glycosylated Nootkatol in Recombinant Hosts” (Evolva SA, priority 2015, published 2018)
